Test results: US20180155451A1 (published 2018)
Like-named read-outs stand apart in the source and are kept apart here.

How the values were obtained:
[1] = target: T1, FcγRIIIa extracellular domain with C-terminal His tag (human, UniProt P08637 17-208); assay: SPR (Biacore), antibody captured on antigen peptide chip, FcγR as analyte
T1 construct: extracellular domain; also called FcgRIIIa; CD16A
Experimental: Specifically, GpH7-TA7 and GpH7-TA45 (SEQ ID NO: 32) resulting from the introduction of L234Y, G236W, and S298A into GpH7-A5 and GpH7-B3, respectively, were prepared according to the method described in Reference Example 1. […] These antibodies were compared for the FcγRIIIa binding according to the method described in Reference Example 2 (Table 10).
Analysis of interaction between objective antibody and the FcγR was carried out using Biacore T100 (GE Healthcare). HBS-EP+ (GE Healthcare) was used as the running buffer, and the measurement temperature was set to 25° C. Chips produced by immobilizing the antigen peptide by the amine coupling method to a Series S Sencor Chip CM5 (GE Healthcare), or alternatively, chips produced by allowing preliminarily biotinylated antigen peptides to interact with and immobilize onto a Series S Sensor Chip SA (certified) (GE Healthcare) were used. Antibodies of interest were captured onto an antigen peptide-immobilized chip, and allowed to interact to each FcγR diluted with running buffer. To regenerate and repeatedly use the chip, the antibodies captured on the chip were washed off by reacting 10 mM glycine-HCl, pH 1.5.

FcgRIa [2] = target: T2, FcgRIa (human, UniProt P12314 16-292); assay: SPR (Biacore), antibody captured on chip, FcgR extracellular domain as analyte
T2 construct: extracellular domain; Expressed in FreeStyle293 cells and purified; used as analyte in Biacore; also called FcγRIa; FcγRI; not shown: His tag attached to the C terminus
T2 sequence (P12314 16-292): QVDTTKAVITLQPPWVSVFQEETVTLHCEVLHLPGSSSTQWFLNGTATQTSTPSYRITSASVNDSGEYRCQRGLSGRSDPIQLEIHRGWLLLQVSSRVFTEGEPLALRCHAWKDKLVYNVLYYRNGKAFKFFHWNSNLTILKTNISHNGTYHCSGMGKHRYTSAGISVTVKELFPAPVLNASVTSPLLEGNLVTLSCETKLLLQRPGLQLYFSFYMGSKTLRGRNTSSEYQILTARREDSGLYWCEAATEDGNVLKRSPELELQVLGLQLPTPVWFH

FcgRIIa R [3] = target: T3, FcgRIIa R (human, UniProt P12318 34-217); assay: as above
T3 construct: extracellular domain; also called FcγRIIa R; FcγRIIa type R; not shown: His tag attached to the C terminus
T3 sequence (looked up): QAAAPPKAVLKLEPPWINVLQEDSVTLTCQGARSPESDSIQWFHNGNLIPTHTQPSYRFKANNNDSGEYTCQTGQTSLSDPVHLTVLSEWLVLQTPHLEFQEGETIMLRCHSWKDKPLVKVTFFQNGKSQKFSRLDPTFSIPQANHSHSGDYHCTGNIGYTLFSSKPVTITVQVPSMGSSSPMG

FcgRIIa H [4] = target: T4, FcgRIIa H (human, UniProt P12318 34-217); assay: as above
T4 construct: extracellular domain; also called FcγRIIa H; FcγRIIa type H; not shown: His tag attached to the C terminus
T4 sequence (looked up): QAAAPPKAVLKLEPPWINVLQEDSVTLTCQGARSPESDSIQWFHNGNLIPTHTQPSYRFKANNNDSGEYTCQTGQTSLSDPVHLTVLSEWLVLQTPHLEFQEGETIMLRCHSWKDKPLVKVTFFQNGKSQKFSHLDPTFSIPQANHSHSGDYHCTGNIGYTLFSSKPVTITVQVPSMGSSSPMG

FcgRIIb [5] = target: T5, FcgRIIb (human, UniProt P31994 43-217); assay: as above
T5 construct: extracellular domain; Expressed in FreeStyle293 cells and purified; used as analyte in Biacore; also called FcγRIIb; CD32B; not shown: His tag attached to the C terminus
T5 sequence (looked up): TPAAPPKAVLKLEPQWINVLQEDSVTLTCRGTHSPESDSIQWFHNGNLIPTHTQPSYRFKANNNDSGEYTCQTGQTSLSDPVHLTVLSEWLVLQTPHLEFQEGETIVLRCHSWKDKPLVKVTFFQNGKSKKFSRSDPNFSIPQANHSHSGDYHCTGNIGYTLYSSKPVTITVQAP

FcgRIIIa F [6] = target: T6, FcgRIIIa F (human, UniProt P08637 17-208); assay: as above
T6 construct: extracellular domain; also called FcγRIIIa F; not shown: His tag attached to the C terminus
T6 sequence (P08637 17-208): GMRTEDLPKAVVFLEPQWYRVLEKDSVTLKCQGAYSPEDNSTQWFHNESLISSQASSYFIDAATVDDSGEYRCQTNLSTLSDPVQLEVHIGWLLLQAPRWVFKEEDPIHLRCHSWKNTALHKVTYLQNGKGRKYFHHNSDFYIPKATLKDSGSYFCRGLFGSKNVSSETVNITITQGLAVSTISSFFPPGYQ

FcgRIIIa V [7] = target: T7, FcgRIIIa V (human, UniProt P08637 17-208); assay: as above
T7 construct: extracellular domain; also called FcγRIIIa V; not shown: His tag attached to the C terminus
T7 sequence (P08637 17-208 F176V limits assumed): as the sequence (P08637 17-208) above, with F160V counted along it

FcgRIa [8] = target: T2, FcgRIa; assay: as above; remark: listed apart in the source
Experimental: (§1) H240-Kn113 (SEQ ID NO: 92) resulting from introduction of Y234E and Y235N into H240-Kn072, H240-Kn115 (SEQ ID NO: 93) resulting from introduction of S239M into H240-Kn072, and H240-Kn125 (SEQ ID NO: 94) resulting from introduction of Y235Q and S239M into H240-Kn072 were prepared according to the method described in Reference Example 1.
(§2) Analysis of interaction between obj ective antibody and the FcγR was carried out using Biacore T100 (GE Healthcare), Biacore T200, Biacore A100, and Biacore 4000. HBS-EP+ (GE Healthcare) was used as the running buffer, and the measurement temperature was set to 25° C. Chips produced by immobilizing the antigen peptide by the amine coupling method to a Series S sensor Chip CM5 (GE Healthcare), chips produced by allowing preliminarily biotinylated antigen peptides to interact with and immobilize onto a Series S Sensor Chip SA (certified) (GE Healthcare), chips produced by immobilizing Protein L (ACTIGEN, BioVision) to Series S Sencor Chip CM5 (GE Healthcare), or chips produced by immobilizing Protein A/G (Thermo Scientific) to Series S Sencor Chip CM5 (GE Healthcare) were used. Antibodies of interest were captured onto these chips, and allowed to interact to each FcγR diluted with running buffer. To regenerate and repeatedly use the chip, the antibodies captured onto the chip were washed off by reacting 10 mM glycine-HCl, pH 1.5.

FcgRIIa R [9] = target: T3, FcgRIIa R; assay: as above; remark: listed apart in the source
Experimental: as §1, §2

FcgRIIa H [10] = target: T4, FcgRIIa H; assay: as above; remark: listed apart in the source
Experimental: as §1, §2

FcgRIIb [11] = target: T5, FcgRIIb; assay: as above; remark: listed apart in the source
Experimental: as §1, §2

FcgRIIIa F [12] = target: T6, FcgRIIIa F; assay: as above; remark: listed apart in the source
Experimental: as §1, §2

FcgRIIIa V [13] = target: T7, FcgRIIIa V; assay: as above; remark: listed apart in the source
Experimental: as §1, §2

FcgRIa [14] = target: T2, FcgRIa; assay: as above; remark: listed apart in the source
Experimental: (§3) Specifically, H240-Kn120 (SEQ ID NO: 99) resulting from introduction of S239M into H240-Kn067 and H240-Kn126 (SEQ ID NO: 100) resulting from introduction of Y235Q into H240-Kn120 were prepared according to the method described in Reference Example 1. […] Those described above were assayed for the binding to each FcgR according to the method described in Reference Example 8.
as §2

FcgRIIa R [15] = target: T3, FcgRIIa R; assay: as above; remark: listed apart in the source
Experimental: as §3, §2

FcgRIIa H [16] = target: T4, FcgRIIa H; assay: as above; remark: listed apart in the source
Experimental: as §3, §2

FcgRIIb [17] = target: T5, FcgRIIb; assay: as above; remark: listed apart in the source
Experimental: as §3, §2

FcgRIIIa F [18] = target: T6, FcgRIIIa F; assay: as above; remark: listed apart in the source
Experimental: as §3, §2

FcgRIIIa V [19] = target: T7, FcgRIIIa V; assay: as above; remark: listed apart in the source
Experimental: as §3, §2

T1 sequence (P08637 17-208): as the sequence (P08637 17-208) above

Binder	FcγR BINDING ACTIVITY (relative FcγRIIIa binding) [1]	Kd (FcgRIa [2]) [nM]	Kd (FcgRIIa R [3]) [nM]	Kd (FcgRIIa H [4]) [nM]	Kd (FcgRIIb [5]) [nM]	Kd (FcgRIIIa F [6]) [nM]	Kd (FcgRIIIa V [7]) [nM]	Kd (FcgRIa [8]) [nM]	Kd (FcgRIIa R [9]) [nM]	Kd (FcgRIIa H [10]) [nM]	Kd (FcgRIIb [11]) [nM]	Kd (FcgRIIIa F [12]) [nM]	Kd (FcgRIIIa V [13]) [nM]	Kd (FcgRIa [14]) [nM]	Kd (FcgRIIa R [15]) [nM]	Kd (FcgRIIa H [16]) [nM]	Kd (FcgRIIb [17]) [nM]	Kd (FcgRIIIa F [18]) [nM]	Kd (FcgRIIIa V [19]) [nM]
GpH7-A5/GpH7-TA45/GpL16-k0 (antibody, human IgG1, kappa, Heterodimerized anti-glypican-3 IgG1 variant) heavy 1: not shown heavy 2: QVQLVQSGAEVKKPGASVTVSCKASGYTFTDYEMHWIRQPPGEGLEWIGAIDPKTGDTAYSESFQDRVTLTADKSTSTAYMELSSLTSEDTAVYYCTRFYSYTYWGQGTLVTVSSASTKGPSVFPLAPSSKSTSGGTAALGCLVKDYFPEPVTVSWNSGALTSGVHTFPAVLQSSGLYSLSSVVTVPSSSLGTQTYICNVNHKPSNTKVDKKVEPKSCDKTHTCPPCPAPEYLWGPSVFLFPPKPKDTLMISRTPEVTCVVVDVSHEDPEVKFNWYVDGVEVHNAKTKPREEQYNATYRVVSVLTVLHQDWLNGKEYKCKVSNKALPAPIEKTISKAKGQPREPQVYTLPPSRDELTKNQVSLTCLVKGFYPSDIAVEWESNGQPENNYKTTPPVLDSDGSFFLYSKLTVDKSRWQQGNVFSCSVMHEALHNHYTQESLSLSP light: DIVMTQSPLSLPVTPGEPASISCQASESLVHSNRNTYLHWYLQKPGQSPQLLIYKVSNRFSGVPDRFSGSGSGTDFTLKISRVEAEDVGVYYCSQNTHVPPTFGQGTKVEIERTVAAPSVFIFPPSDEQLKSGTASVVCLLNNFYPREAKVQWKVDNALQSGNSQESVTEQDSKDSTYSLSSTLTLSKADYEKHKVYACEVTHQGLSSPVTKSFNRGEC	225 relative, GpH7-A5/GpH7-B3/GpL16-k0 = 100																		
H240-Kn032/H240-Hl032/L73-k0 (antibody, human IgG1, kappa, Anti-EREG IgG1 called homodimerized: S239D/A330L/I332E in both H chains, on the knobs-into-holes pair Kn033/Hl033) heavy 1: QDQLVQSGAEVKKPGASVKVSCKASGFNIKDTYIQWVRQAPGQGLEWMGRIDPLRKQTKYREKFEGRVTITADTSTNTAYMELSSLRSEDTAVYYCVRSGREFDYWGQGTLVTVSSASTKGPSVFPLAPSSKSTSGGTAALGCLVKDYFPEPVTVSWNSGALTSGVHTFPAVLQSSGLYSLSSVVTVPSSSLGTQTYICNVNHKPSNTKVDKKVEPKSCDKTHTCPPCPAPELLGGPDVFLFPPKPKDTLMISRTPEVTCVVVDVSHEDPEVKFNWYVDGVEVHNAKTKPREEQYNSTYRVVSVLTVLHQDWLNGKEYKCKVSNKALPLPEEKTISKAKGQPREPQVCTLPPSRDELTKNQVSLWCLVKGFYPSDIAVEWESNGQPENNYKTTPPVLDSDGSFFLYSKLTVDKSRWQQGNVFSCSVMHEALHNHYTQKSLSLSP heavy 2: QDQLVQSGAEVKKPGASVKVSCKASGFNIKDTYIQWVRQAPGQGLEWMGRIDPLRKQTKYREKFEGRVTITADTSTNTAYMELSSLRSEDTAVYYCVRSGREFDYWGQGTLVTVSSASTKGPSVFPLAPSSKSTSGGTAALGCLVKDYFPEPVTVSWNSGALTSGVHTFPAVLQSSGLYSLSSVVTVPSSSLGTQTYICNVNHKPSNTKVDKKVEPKSCDKTHTCPPCPAPELLGGPDVFLFPPKPKDTLMISRTPEVTCVVVDVSHEDPEVKFNWYVDGVEVHNAKTKPREEQYNSTYRVVSVLTVLHQDWLNGKEYKCKVSNKALPLPEEKTISKAKGQPREPQVYTLPPSRCELTKNQVSLSCAVKGFYPSDIAVEWESNGQPENNYKTTPPVLDSDGSFFLVSKLTVDKSRWQQGNVFSCSVMHEALHNHYTQKSLSLSP light: DIQMTQSPSSLSASVGDRVTITCRASQDIHKYIAWYQQKPGQAPRLLIQYTSTLQPGVPSRFSGSGSGTDYTFTISSLQPEDIATYYCLQYEQLRTFGGGTKVEIKRTVAAPSVFIFPPSDEQLKSGTASVVCLLNNFYPREAKVQWKVDNALQSGNSQESVTEQDSKDSTYSLSSTLTLSKADYEKHKVYACEVTHQGLSSPVTKSFNRGEC		0.073	340	690	630	9.1	3.1	0.073	340	690	630	9.1	3.1	0.073	340	690	630	9.1	3.1
